Experimental data reported in patent publication US20250188188A1 (DIANTHUS THERAPEUTICS OPCO, published 2025).

B1: MAB2 (US20220380483A1) (antibody, V domains shown)
VH: QVQLVESGGGLVKPGGSLRLSCAASGFTFSDYYMSWIRQAPGKGLEWVSYISRSGSTKYYADSVKGRFTISRDNAKNSLYLQMNSLRAEDTAVYYCARDETDYALDYWGQGTLVTVSS
VL: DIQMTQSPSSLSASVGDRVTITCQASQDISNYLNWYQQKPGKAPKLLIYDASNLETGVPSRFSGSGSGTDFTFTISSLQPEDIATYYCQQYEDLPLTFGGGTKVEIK
B2: MAB15 (antibody, V domains shown)
VH: QVQLVQSGAEVKKPGASVKVSCKVSGDTLTELSMHWVRQAPGKGLEWMGTFDPEEGETIYAQKFQGRVTMTEDTSTDTAYMELSSLRSEDTAVYYCVTKGLAWLPYYSWGQGTLVTVSS
VL: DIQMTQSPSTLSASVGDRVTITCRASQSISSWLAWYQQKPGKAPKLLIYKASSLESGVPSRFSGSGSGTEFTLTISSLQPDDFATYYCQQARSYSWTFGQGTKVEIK
notes: IgG
B3: MAB22 (antibody, V domains shown)
VH: EVQLVESGGGVVRPGGSLRLSCAASGFTFDDYGMSWVRQAPGKGLEWVSGINWEGGSTGYADSVKGRFTISRDNAKNSLYLQMNSLRAEDTALYYCARDEQLGGKYYYYYYMDVWGKGTTVTVSS
VL: DIQMTQSPSSLSASVGDRVTITCRASQGIRNDLGWYQQKPGKAPKRLIYTASNLQSGVPSRFSGSGSGTEFTLTISSLQPEDFATYYCLQYRSHPLTFGGGTKVEIK
notes: IgG
B4: MAB24 (antibody, V domains shown)
VH: EVQLVESGGGVVRPGGSLRLSCAASGFTFDDYGMSWVRQAPGKGLEWVSGINWEGGSTGYADSVKGRFTISRDNAKNSLYLQMNSLRAEDTALYYCARDEQLGGTTYYYYYMDVWGKGTTVTVSS
VL: DIQMTQSPSSLSASVGDRVTITCRASQGIRNDLGWYQQKPGKAPKRLIYTASNLQSGVPSRFSGSGSGTEFTLTISSLQPEDFATYYCLQTNIYPLTFGGGTKVEIK
notes: IgG
B5: MAB26 (antibody, V domains shown)
VH: EVQLVESGGGVVRPGGSLRLSCAASGFTFDDYGMSWVRQAPGKGLEWVSGINWEGGSTGYADSVKGRFSISRDNAKNSLYLQMNSLRAEDTALYYCARDEQLGGLKYYYYYMDVWGKGTTVTVSS
VL: DIQMTQSPSSLSASVGDRVTITCRASQGIRNDLGWYQQKPGKAPKRLIYTASNLQSGVPSRFSGSGSGTEFTLTISSLQPEDFATYYCLQTNIYPLTFGGGTKVEIK
notes: IgG
B6: MAB28 (antibody, V domains shown)
VH: EVQLVESGGGVVRPGGSLRLSCAASGFTFDDYGMSWVRQAPGKGLEWVSGINWEGGSTGYADSVKGRFSISRDNAKNSLYLQMNSLRAEDTALYYCARDEQLGGLKYYYYYMDVWGKGTTVTVSS
VL: DIQMTQSPSSLSASVGDRVTITCRASQGIRNDLGWYQQKPGKAPKRLIYTASNLQSGVPSRFSGSGSGTEFTLTISSLQPEDFATYYCLQYHSYPLRFGGGTKVEIK
notes: IgG
B7: MAB25 (antibody, V domains shown)
VH: EVQLVESGGGVVRPGGSLRLSCAASGFTFDDYGMSWVRQAPGKGLEWVSGINWEGGSTGYADSVKGRFTISRDNAKNSLYLQMNSLRAEDTALYYCARDEQLGGIKYYYYYMDVWGKGTTVTVSS
VL: DIQMTQSPSSLSASVGDRVTITCRASQGIRNDLGWYQQKPGKAPKRLIYTASNLQSGVPSRFSGSGSGTEFTLTISSLQPEDFATYYCLQYKQYPLTFGGGTKVEIK
notes: IgG
B8: MAB30 (antibody, V domains shown)
VH: EVQLVESGGGVVRPGGSLRLSCAASGFTFDDYGMSWVRQAPGKGLEWVSGINWEGGSTGYADSVKGRFTISRDNAKNSLYLQMNSLRAEDTALYYCARDEQLGGRHYYYYYMDVWGKGTTVTVSS
VL: DIQMTQSPSSLSASVGDRVTITCRASQGIRNDLGWYQQKPGKAPKRLIYTASNLQSGVPSRFSGSGSGTEFTLTISSLQPEDFATYYCLQYNAYPLIFGGGTKVEIK
notes: IgG
B9: MAB3 (antibody, V domains shown)
VH: QVQLVESGGGLVKPGGSLRLSCAASGFTFSDYYMSWIRQAPGKGLEWVSYISRSGSTKYYADSVKGRFTISRDNAKNSLYLQMNSLRAEDTAVYYCARDETDYAFDEWGQGTLVTVSS
VL: DIQMTQSPSSLSASVGDRVTITCQASQDISNYLNWYQQKPGKAPKLLIYDASNLETGVPSRFSGSGSGTDFTFTISSLQPEDIATYYCKQYEDYPLTFGGGTKVEIK
notes: IgG
B10: MAB2 (antibody, V domains shown)
VH: QVQLVESGGGLVKPGGSLRLSCAASGFTFSDYYMSWIRQAPGKGLEWVSYISRSGSTKYYADSVKGRFTISRDNAKNSLYLQMNSLRAEDTAVYYCARDETDYGWDYWGQGTLVTVSS
VL: DIQMTQSPSSLSASVGDRVTITCQASQDISNYLNWYQQKPGKAPKLLIYDASNLETGVPSRFSGSGSGTDFTFTISSLQPEDIATYYCKQYEDYPLTFGGGTKVEIK
notes: IgG
B11: MAB7 (antibody, V domains shown)
VH: QVQLVESGGGLVKPGGSLRLSCAASGFTFSDYYMSWIRQAPGKGLEWVSYISRSGSTKYYADSVKGRFTISRDNAKNSLYLQMNSLRAEDTAVYYCARDETDYAYDNWGQGTLVTVSS
VL: DIQMTQSPSSLSASVGDRVTITCQASQDISNYLNWYQQKPGKAPKLLIYDASNLETGVPSRFSGSGSGTDFTFTISSLQPEDIATYYCQQYEDYPLVFGGGTKVEIK
notes: IgG
B12: MAB1 (antibody, V domains shown)
VH: QVQLVESGGGLVKPGGSLRLSCAASGFTFSDYYMSWIRQAPGKGLEWVSYISRSGSTKYYADSVKGRFTISRDNAKNSLYLQMNSLRAEDTAVYYCARDQEDYALDYWGQGTLVTVSS
VL: DIQMTQSPSSLSASVGDRVTITCQASQDISNYLNWYQQKPGKAPKLLIYDASNLETGVPSRFSGSGSGTDFTFTISSLQPEDIATYYCEQYEDYPLTFGGGTKVEIK
notes: 191g-derived clone expressed as IgG in 293 cells
B13: MAB4 (antibody, V domains shown)
VH: QVQLVESGGGLVKPGGSLRLSCAASGFTFSDYYMSWIRQAPGKGLEWVSYISRSGSTKYYADSVKGRFTISRDNAKNSLYLQMNSLRAEDTAVYYCARDESQYALDYWGQGTLVTVSS
VL: DIQMTQSPSSLSASVGDRVTITCQASQDISNYLNWYQQKPGKAPKLLIYDASNLETGVPSRFSGSGSGTDFTFTISSLQPEDIATYYCHQYEDYPLTFGGGTKVEIK
notes: The IgG4 YTE form is entered separately as IgG4-MAB4
B14: MAB9 (antibody, V domains shown)
VH: QVQLVESGGGLVKPGGSLRLSCAASGFTFSDYYMSWIRQAPGKGLEWVSYISRSGSTKYYADSVKGRFTISRDNAKNSLYLQMNSLRAEDTAVYYCARDENYALDWWGQGTLVTVSS
VL: DIQMTQSPSSLSASVGDRVTITCQASQDISNYLNWYQQKPGKAPKLLIYDASNLETGVPSRFSGSGSGTDFTFTISSLQPEDIATYYCQHYEDYPLTFGGGTKVEIK
notes: The IgG4 YTE form is entered separately as IgG4-MAB9

biological target: T1, active human C1s purified from human serum (CompTech, Tyler, TX, catalog number A104) (human, UniProt P09871 16-437; P09871 438-688); experiment: cell-based or functional assay
T1 sequence 1: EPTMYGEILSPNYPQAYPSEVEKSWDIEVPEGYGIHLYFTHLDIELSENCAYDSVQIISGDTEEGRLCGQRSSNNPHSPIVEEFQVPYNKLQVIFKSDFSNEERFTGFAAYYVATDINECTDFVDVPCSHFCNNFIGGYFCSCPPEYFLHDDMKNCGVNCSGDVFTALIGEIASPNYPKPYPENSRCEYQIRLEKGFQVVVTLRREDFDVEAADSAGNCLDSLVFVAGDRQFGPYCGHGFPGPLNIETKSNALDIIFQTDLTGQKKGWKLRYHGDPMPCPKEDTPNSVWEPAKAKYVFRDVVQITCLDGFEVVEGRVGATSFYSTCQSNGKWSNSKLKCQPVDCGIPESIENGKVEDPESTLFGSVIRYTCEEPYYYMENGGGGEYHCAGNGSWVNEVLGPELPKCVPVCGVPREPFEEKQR
T1 sequence 2: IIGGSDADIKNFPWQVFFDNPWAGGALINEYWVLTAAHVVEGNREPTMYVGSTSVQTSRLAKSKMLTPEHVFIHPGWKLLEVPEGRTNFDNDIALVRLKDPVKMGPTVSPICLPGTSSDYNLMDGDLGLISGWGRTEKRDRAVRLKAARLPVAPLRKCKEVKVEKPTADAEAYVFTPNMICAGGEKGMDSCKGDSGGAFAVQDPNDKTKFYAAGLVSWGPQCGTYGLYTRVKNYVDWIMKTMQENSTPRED

Binder | IC50 in the RBC lysis assay (FIG. 4C) [nM]
B1 | 61.2

biological target: T1, active human C1s purified from human …; experiment: SPR, antibody captured via anti-human Fc, C1s in solution

Binder | Kd [nM] | koff [s⁻¹] | kon [M⁻¹ s⁻¹]
B2 | 6.39 | 0.000737 | 115000
B3 | 4.17 | 0.000335 | 80400
B4 | 3.49 | 0.000328 | 93900
B5 | 6.52 | 0.00055 | 84500
B6 | 2.89 | 0.000409 | 141000
B7 | 5.57 | 0.000621 | 111000
B8 | 6.01 | 0.000688 | 115000
B9 | 0.932 | 0.000209 | 224000
B10 | 1.83 | 0.000215 | 118000
B11 | 1.22 | 0.000223 | 184000
B12 | 0.95 | 0.000255 | 268000
B13 | 1.22 | 0.000232 | 190000
B14 | 0.306 | 0.000127 | 414000
